Experimental findings from paper PMC3958441, “Isl1 and Pou4f2 Form a Complex to Regulate Target Genes in Developing Retinal Ganglion Cells” (PLoS ONE, 2014) are described below.

Holding throughout (test): EMSA; EMSA: 20 mM Tris-HCl pH 7.5, 50 mM NaCl, 10 mM DTT, 1 mM EDTA, 5% glycerol, 200 ng dI/dC, 200 ng each protein in 20 ul, 4 C, 30 min; 8% PAGE, 1x TBE, 4 C
One data set has as its target T1, Isl1D4 (mouse, UniProt P61372 146-349).
T1 sequence: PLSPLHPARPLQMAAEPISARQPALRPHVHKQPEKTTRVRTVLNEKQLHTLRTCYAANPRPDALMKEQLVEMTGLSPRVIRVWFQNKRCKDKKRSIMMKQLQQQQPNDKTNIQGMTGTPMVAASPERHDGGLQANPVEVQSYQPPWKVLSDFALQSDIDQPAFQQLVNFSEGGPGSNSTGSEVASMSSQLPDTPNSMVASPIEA
Particulars: protein: recombinant; tags: His (C-terminal); (radiolabel, Klenow fill-in); 5' overhang 1 nt at both ends before fill-in.

The next data set concerns the target T2, Isl1D3 (mouse, UniProt P61372 170-349).
T2 sequence: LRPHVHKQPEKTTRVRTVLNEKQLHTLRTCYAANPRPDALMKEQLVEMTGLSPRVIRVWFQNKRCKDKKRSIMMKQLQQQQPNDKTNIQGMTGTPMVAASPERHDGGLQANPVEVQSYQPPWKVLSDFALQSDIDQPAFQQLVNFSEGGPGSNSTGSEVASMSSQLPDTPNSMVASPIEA
The settings on record: protein: recombinant; tags: His (C-terminal); (radiolabel, Klenow fill-in); 5' overhang 1 nt at both ends before fill-in.

A further data set has as its target T3, Pou4f2D5 (mouse, UniProt Q63934 125-411).
T3 sequence: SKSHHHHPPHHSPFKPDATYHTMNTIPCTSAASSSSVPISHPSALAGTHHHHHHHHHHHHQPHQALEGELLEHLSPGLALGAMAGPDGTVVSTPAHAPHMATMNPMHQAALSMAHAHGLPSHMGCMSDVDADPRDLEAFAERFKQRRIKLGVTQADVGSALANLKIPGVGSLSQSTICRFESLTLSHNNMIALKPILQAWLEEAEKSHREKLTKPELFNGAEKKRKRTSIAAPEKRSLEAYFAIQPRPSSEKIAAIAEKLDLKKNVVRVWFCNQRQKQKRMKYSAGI
Particulars: protein: recombinant; tags: His (C-terminal); (radiolabel, Klenow fill-in); 5' overhang 1 nt at both ends before fill-in.

A further data set deals with T4, Isl1D1 (mouse, UniProt P61372 1-181).
T4 sequence: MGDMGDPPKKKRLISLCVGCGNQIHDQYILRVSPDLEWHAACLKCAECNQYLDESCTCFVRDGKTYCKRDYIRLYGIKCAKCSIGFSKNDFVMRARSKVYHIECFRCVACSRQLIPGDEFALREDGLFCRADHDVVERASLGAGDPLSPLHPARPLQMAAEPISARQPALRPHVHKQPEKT
Particulars: protein: recombinant; tags: His (C-terminal); (radiolabel, Klenow fill-in); 5' overhang 1 nt at both ends before fill-in.

Another data set has as its target T5, Isl1 (mouse, UniProt P61372 1-349).
T5 sequence: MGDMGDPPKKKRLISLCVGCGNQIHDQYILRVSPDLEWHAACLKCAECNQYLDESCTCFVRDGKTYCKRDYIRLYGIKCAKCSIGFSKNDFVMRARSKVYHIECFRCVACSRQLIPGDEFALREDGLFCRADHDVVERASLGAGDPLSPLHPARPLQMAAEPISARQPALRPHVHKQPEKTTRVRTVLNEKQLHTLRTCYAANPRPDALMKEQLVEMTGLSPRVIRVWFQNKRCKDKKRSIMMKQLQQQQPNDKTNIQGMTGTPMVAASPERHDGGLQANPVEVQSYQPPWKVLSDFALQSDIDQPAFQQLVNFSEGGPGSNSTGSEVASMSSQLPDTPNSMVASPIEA
The settings on record: protein: recombinant; tags: His (C-terminal, pET-28a); (radiolabel, Klenow fill-in); 5' overhang 1 nt at both ends before fill-in.

B1: CBRN3(W) (dsDNA)
DNA 1: GATCTCTCCTGCATAATTAATTACCCCCGGAT
DNA 2: GATCCGGGGGTAATTAATTATGCAGGAGAGAT
On to B1, for which the binding result in the data set with Isl1D4 was “binds”; in the data set with Isl1D3 it was “binds”; with Pou4f2D5 it was “binds”; in the data set with Isl1D1, “no binding”; with Isl1, “binds”.

B2: SBRN3(W) (dsDNA)
DNA 1: GCACACGACCCAATGAATTAATAACCGGGCTG
DNA 2: GCAGCCCGGTTATTAATTCATTGGGTCGTGTG
Regarding B2, the binding result with Isl1D4 was “binds”; in the data set with Isl1D3, “binds”; with Pou4f2D5 it was “binds”; with Isl1D1 it was “no binding”; with Isl1, “binds”.
